From PMC8908248 (The Journal of Biological Chemistry, 2022)
Each block holds one molecule with its values, some of them ahead of it.

Experiments:
[1] = target: homodimeric sulfite oxidase Mo domain (Mo/Mo) (human); assay: SEC
SEC = target: the molecule itself; assay: SEC

stoichiometry N [1]: 2
Molecule: homodimeric sulfite oxidase Mo domain (Mo/Mo) (domain or fragment)

B1: mature full-length human sulfite oxidase (WT SOX/SOX homodimer) (enzyme, UniProt P51687 80-545, looked up)
chain: ESTHIYTKEEVSSHTSPETGIWVTLGSEVFDVTEFVDLHPGGPSKLMLAAGGPLEPFWALYAVHNQSHVRELLAQYKIGELNPEDKVAPTVETSDPYADDPVRHPALKVNSQRPFNAEPPPELLTENYITPNPIFFTRNHLPVPNLDPDTYRLHVVGAPGGQSLSLSLDDLHNFPRYEITVTLQCAGNRRSEMTQVKEVKGLEWRTGAISTARWAGARLCDVLAQAGHQLCETEAHVCFEGLDSDPTGTAYGASIPLARAMDPEAEVLLAYEMNGQPLPRDHGFPVRVVVPGVVGARHVKWLGRVSVQPEESYSHWQRRDYKGFSPSVDWETVDFDSAPSIQELPVQSAITEPRDGETVESGEVTIKGYAWSGGGRAVIRVDVSLDGGLTWQVAKLDGEEQRPRKAWAWRLWQLKAPVPAGQKELNIVCKAVDDGYNVQPDTVAPIWNLRGVLSNAWHRVHVYVSP
stoichiometry N (SEC): 2
